Test results from patent publication US20220372114A1 (CURIA IP, published 2022).
Numbering of substitutions follows the chain as printed. Values joined by “and” are separate entries in the source; they are usually repeats but may differ in a detail not shown here. Equal values may be shown once.

B1: 10-B13-A (human Fc IgG2 chimera) (antibody, V domains shown)
VH: QVQLQQSGAELVKPGASVKISCKASGYAFSNYWMNWVKQRPGKGLEWIGQIYPGDGDTNYNGNFKGKATLTADKSSSTAYIQLSSLTSEDSAVYFCGRGFIATVVEVFDHWGLGTTLTVSS
VL: DIQMTQTTSSLSASLGDRVTISCRASQDISNYLNWYQQKPDGTVKLLIYYTSRLQSGVPSRFSGSGTGTDYSLTISNLEQEDIATYFCQQGNTLPWTFGGGTKLEIK
B2: 7-B10-A (antibody, V domains shown)
VH: EVQLVESGGGLVQPKGSLKLSCAASGFTFNTYAMHWVRQAPGKGLEWVARIRSKSSNYARYYADSVKDRFTISRDESQSMLYLQMNNLKTEDTAMYYCVRDHDYYGSSYWFAYWGQGTLVTVSA
VL: DVVMTQTPLSLPVSLGDQASISCSSSQSLVHNNGNTYLHWYLQKPGQSPKLLIYKVSNRFSGVPDRFSGSGSGTDFTLKISRVEAEDLGVYFCSQSTHVPWTFGGGTKLEIK
B3: 5-P24-A (antibody, V domains shown)
VH: QAYLQQSGAELVRPGASVKMSCKASGYTFTSYSMHWVKQTPRQGLEWIGAIYPGNGDTSYTQKFKGKATLTVDKSSSTAYMQLSSLTSEDSAVYFCARDYSNYPFDYWGQGTTLTVSS
VL: not shown
B4: 10-L12-A (antibody, V domains shown)
VH: B3 VH with T61N, A97T
VL: DIVLTQSPASLAVSLGQRATISCRASKSVSTSGYSYLHWYQQKPGQPPKLLIYLASNLESGVPARFSGSGSGTDFTLNIHPVEEEDAATYYCQHSRELPPTFGGGTKLEIK
B5: 4-K13-A (antibody, V domains shown)
VH: QAYLQQSGAELVRPGASVKMSCKASGYTFTSYTVHWVKQTPRQGLEWIGAIYPGNVDTSYNQNFKGKATLTVDKSSSTAYMQLSSLTSEDSAVYFCARDGYYAMDYWGQGTSVTVSS
VL: not shown

How the values were obtained:
[1] = molecular target: SARS-CoV-2 spike protein on live wild-type virus (SARS-CoV-2, UniProt P0DTC2 14-1273); assay: cell-based or functional assay
[2] = molecular target: SARS-CoV-2 (WIV02 isolate) prefusion stabilized spike trimer protein (SARS-CoV-2 (WIV02 isolate), UniProt P0DTC2 14-1213); assay: ELISA

Binder	IC50, BSL3 Vero E6 infection plaque assay [1]	binding result [2]
B1	0.21 µg/mL and 1.4 nM	–
B2	–	binds
B3	–	binds
B4	–	binds
B5	–	binds
